In patent US20040081647A1:

Molecular target: recombinant human TNFα (RDI) (human) (UniProt P01375)
Experiment: cell-based or functional assay

recombinant human TNFα (RDI) (human), sequence (P01375 77-233 limits assumed): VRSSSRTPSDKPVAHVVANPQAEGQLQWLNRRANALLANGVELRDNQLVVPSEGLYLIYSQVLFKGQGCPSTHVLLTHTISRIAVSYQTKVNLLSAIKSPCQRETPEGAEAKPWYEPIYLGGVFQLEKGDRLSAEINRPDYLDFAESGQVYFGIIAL

B1: MMP7 (enzyme, UniProt P09237 95-267, looked up, species assumed)
Matrilysin: YSLFPNSPKWTSKVVTYRIVSYTRDLPHITVDRLVSKALNMWGKEIPLHFRKVVWGTADIMIGFARGAHGDSYPFDGPGNTLAHAFAPGTGLGGDAHFDEDERWTDGSSLGINFLYAATHELGHSLGMGHSSDPNAVMYPTYGNGDPQNFKLSQDDIKGIQKLYGKRSNSRKK
- survival of L929 cells at the dilution equivalent to ˜600 pg/ml TNFα after digestion: 40 % survival
